Reference: publication doi:10.1101/2022.03.30.486221 (bioRxiv, 2022)

Target: the molecule itself
Experiment: SEC

B1: recombinant His6-tagged StTGA2.1 (natural protein, UniProt A0A9F1U434 1-270, looked up)
chain: MDAMGDREGPRLVSSTALWRGDRRPAQVVQVSQLEQDFQRAPQQRESGSLPFDTEYSRWLEEHTKHINELRTAVNSHASDPELRSMVDSVIAHYDEVYRMKANAAKGNVEHLLSGMWKTPAERCSMWIGDFRPSLLLKLLVNQVEPLTEQQLIGIVNLQQSSQQAEDALSQDMEAWQQSLEVTLAYGSLATEGSSGDAAYNISQMAMAMGILGTLEGFLRQADNLRQQTLQQMHRMLTTRQSARALLAISEYFSRLRALSSLWLARPREQ
- stoichiometry N: 2
